A short description of data set [1]: Uptake of the active ingredient in canola seedling cotyledons after seed treatment with or without cutinase. The data set is classed as in vivo. The conditions noted are these: canola, cotyledons (leaf), other: seed treatment (slurry applied to seeds), 20.1 μg/seed; Cotyledon analysis seven days after planting; normalized using mean % Al recovery (90.9%) and mean % coating efficiency; read-out: Mean Al Uptake (ng/mg leaf). The method, then: (§1) Canola seeds were treated with formulated product diluted in water by spinning 100 g seed in a 1-liter HEGE bowl while applying treatment slurry. Seeds were spun until dry.
(§2) On the day of planting, 24-well plates (10 mL, nonsterile) were filled with a highly organic plug & seedling mix. Water was uniformly applied to the soil surface using a spray nozzle until just before complete saturation of soil column. Soil was tamped down to a level of 1 cm below plate surface. One treated seed was placed on the soil surface of each well and then covered with potting mixture leveled to the plate surface. The top soil surface was sprayed once more to moisten. Plates were then held in an incubator and top-watered as needed with fertilizer water (NPK 16-4-20-3(Ca)-1(Mg)) via spray nozzle. Seven days after planting, both cotyledons from ten plants were sampled for analysis by clipping the point where cotyledon meets stem. Replication was 10×.
(§3) The seed/excised cotyledons were extracted with acetonitrile solvent (3 mL, containing 1% acetic acid) by homogenization in Teflon tubes using 2010 Geno/Grinder (Spex Sample Prep) for 2 min at 1200 RPM. The homogenate was then mixed with anhydrous sodium sulphate (˜600 mg), sodium acetate (˜100 mg) and vortexed well before centrifugation using Beckman Coulter (Allegra X-14R) centrifuge for 5 min at 3000 RPM. The clear supernatant was then transferred into appropriate vials for LC/MS analysis.
(§4) LCMS analyses were performed using Thermo Fisher Scientific Extractive Orbitrap Mass Analyzer with electrospray positive mode of ionization. Thermo Fisher Scientific Surveyor MS Plus Pump and autosampler were used for the chromatographic runs through a column (Sonoma-C18, 2.1×100 mm, 5 μm). The gradient started with 98:2 Water/MeOH (containing 4 mM ammonium formate and 0.1% formic acid) and ending with 98:2 MeOH/Water in about 10 min.

In the next data set the test system is canola seedlings. Described as above. The data set is classed as in vivo. The conditions noted are these: for Al Uptake (%) / Mean Al Uptake (ng/mg leaf): Cotyledon analysis seven days after planting; for Al Uptake (%): calculated based on spiked control, 22340 ng/replicate; for Mean Al Uptake (ng/mg leaf): normalized using mean % Al recovery (90.9%) and mean % coating efficiency. The protocol:
as §1, §2, §3, §4

The next data set deals with wheat seedlings. Description: Clothianidin uptake in wheat seedlings (cotyledon analysis) after seed treatment with cutinases. As to conditions: for Average of clothianidin detected on 15 pairs of wheat cotyledons: wheat seed treatment with clothianidin plus enzyme-containing cell extract; for % Clothianidin uptake in wheat cotyledons: wheat seed treatment, one way ANOVA test (P = 0.002); for percent clothianidin uptake in wheat seedlings, effect of cutinase seed treatment: P=0.002. It counts as in vivo, Triticum sp. The protocol:
a. Seed treatment: Formulations were diluted and enzymes were dissolved in HPLC water. Solutions were made and mixed immediately before each treatment. For each treatment, 100 g of spring wheat seeds (Triticum sp.) were placed in a 1-L bowl of a HEGE 11 seed treater. Treatment slurry was applied to spinning seeds in an application volume of 1.5 mL including 2.05 mg of lyophilized enzyme-containing cell extracts and seeds were spun until dry. Directly after treatment, seeds were transferred to paper seed pouches and stored in a cooler filed with ice packs until planting.
b. Plant incubation: Before seed treatment, 24-well plates were filled with RediEarth potting mixture sifted through a 3.35-mm mesh sieve. Tap water was uniformly applied to the soil surface using a conical spray nozzle until just before complete saturation of soil column (˜55 mL/plate). The soil was tamped down to a level of 1 cm below plate surface. One hour after treatment, one seed was placed on the soil surface of each well. RediEarth was sifted directly over the wells and the soil line was levelled to the plate surface. The soil surface was moistened again with ˜22 mL water/plate. Plates were then held in a randomized complete block design in an incubator at 25° C., 50% RH containing two FloraSun (F25T8 Plant Growth) lights at 14L:10D. Replication was 10 plates per treatment.
d. Cotyledon analysis: Fifteen excised pairs of wheat cotyledons were extracted (10× replicates) with acetonitrile solvent (10 mL, containing 1% acetic acid) by homogenization. The homogenate is first centrifuged to bring down the solvent/material sticking to the cap using Beckman Coulter (Allegra X-14R) centrifuge for 3 min at 3000 RPM. The collected homogenate is then treated with anhydrous magnesium sulfate (˜3500 mg), sodium acetate (˜220 mg) and vortexed well (˜30s) before further centrifugation for the same duration as above. The supernatant clear solution is then transferred into appropriate vials for LC/MS analysis without further dilution.
Control samples were prepared by spiking a known amount std clothianidin into 15 pairs of cotyledons (10 replicates) collected from the seedlings of untreated […] seeds and homogenized and processed as above. The recovery of the AI was quantified from the LC/MS data and then used to normalize the results from treated cotyledon sample sets.
LCMS analyses were performed using Thermo Fisher Scientific Q-Exactive Mass Analyzer with electrospray positive mode of ionization. Thermo Fisher Scientific Surveyor MS Plus Pump and autosampler were used for the chromatographic runs through a column (Sonoma-C18, 2.1×100 mm, 5 u). The gradient started with 98:2 Water/MeOH (containing 4 mM ammonium formate and 0.1% formic acid) and ending with 98:2 MeOH/Water in about 10 min.

Consider five molecules from US20230039941A1, “ENZYME ENHANCED ROOT UPTAKE OF AGROCHEMICAL ACTIVE COMPOUND” (BASF SE, priority 2019, published 2023).

Marks after values point to notes of the source that are not given here.

Take `C[n+]1c([O-])c(-c2ccccc2)c(=O)n2c1SC[C@@H]2c1cnc(Cl)s1` [(3R)-3-(2-chlorothiazol-5-yl)-8-methyl-5-oxo-6-phenyl-2,3-dihydrothiazolo[3,2-a]pyrimidin-8-ium-7-olate]: the concentration at 7 days after planting in data set [1] stood at 2290 ng/g. The “Al Uptake (%)” value with canola seedlings is 0.40%.
For the molecule `CN/C(=N\[N+](=O)[O-])NCc1cnc(Cl)s1` [clothianidin, reference compound], in the data set with wheat seedlings, the “Average of clothianidin detected on 15 pairs of wheat cotyledons” value (“Average of clothianidin detected” below) is on record as 9.4 ± 2.0 ng and the “% Clothianidin uptake in wheat cotyledons” value (shortened to “% Clothianidin uptake”) is 0.39 ± 0.08^a %.

B1: CUT-4: Cutinase according to SEQ No. 4, Pseudomonas mendocina (94%), NCBI WP_096825365.1 (protein)
chain: APLPDTPGAPFPSVSNFDRSGPYATTSRSEGPNCRVYRPATLGQNGVRHPIVLWGNGTGTGPTAYSGLLSHWASHGFVVAAAETSNAGTGEQMLACLDYLVQESNRTYGTYVGVLNTGRVGTSGHSQGGGGSIMAGQDERVSVTAPIQPYTIGLGHDSASQRNQQGPMFLMSGGGDTIAFPYLNAQPVYTRANVPVFWGERRYVSHFEPVGDGGAYRGPSTAWFRYHLMEDETARSTFYGRFCGLCTSVLWTEERKDIE
modifications: Pseudomonas sp. SST3; Cutinase 9
Take B1: in the data set on wheat seedlings, the “percent clothianidin uptake in wheat seedlings, effect of cutinase seed treatment” value (from here on “percent clothianidin uptake”) was “improvement was not significant”; the “Average of clothianidin detected” value stood at 10.8 ± 2.1 ng; the “% Clothianidin uptake” value was 0.44 ± 0.09^a %. Moreover, in the data set with canola seedlings, the “Al Uptake (%)” value is 0.43% and the “Mean Al Uptake (ng/mg leaf)” value is given as 2.16 ng/mg leaf.

B2: CUT-1: Cutinase according to SEQ No. 1, biological source Pseudomonas mendocina (US5545547A) (protein, listed as Pseudomonas mendocina)
chain: APLPDTPGAPFPAVANFDRSGPYTTSSQSEGPSCRIYRPRDLGQGGVRHPVILWGNGTGAGPSTYAGLLSHWASHGFVVAAAETSNAGTGREMLACLDYLVRENDTPYGTYSGKLNTGRVGTSGHSQGGGGSIMAGQDTRVRTTAPIQPYTLGLGHDSASQRRQQGPMFLMSGGGDTIAFPYLNAQPVYRRANVPVFWGERRYVSHFEPVGSGGAYRGPSTAWFRFQLMDDQDARATFYGAQCSLCTSLLWSVERRGL
modifications: Cutinase 1
In the case of B2, in the data set on wheat seedlings, the “percent clothianidin uptake” value is given as “significantly enhanced”; the “Average of clothianidin detected” value was 12.5 ± 3.2 ng; the “% Clothianidin uptake” value was 0.59 ± 0.15^b %. Moreover, in the data set on canola seedlings, the “Al Uptake (%)” value is listed as 0.60% and the “Mean Al Uptake (ng/mg leaf)” value is on record as 3.04 ng/mg leaf. Also, in the data set on canola seedlings (canola cotyledon analysis), the “mean AI uptake (ng/mg leaf) compared with no enzyme control” value was “significantly higher than no enzyme control” and the “percent of AI uptake compared with no enzyme control” value is “significantly higher than no enzyme control”.

B3: CUT-2: Cutinase according to SEQ No. 2, biological source Pseudomonas mendocina (PDB 2FX5_A) (protein, listed as Pseudomonas mendocina)
chain: APLPDTPGAPFPAVANFDRSGPYTVSSQSEGPSCRIYRPRDLGQGGVRHPVILWGNGTGAGPSTYAGLLSHWASHGFVVAAAETSNAGTGREMLACLDYLVRENDTPYGTYSGKLNTGRVGTSGHSQGGGGSIMAGQDTRVRTTAPIQPYTLGLGHDSASQRRQQGPMFLMSGGGDTIAFPYLNAQPVYRRANVPVFWGERRYVSHFEPVGSGGAYRGPSTAWFRFQLMDDQDARATFYGAQCSLCTSLLWSVERRGL
modifications: Cutinase 2
As for B3, in the data set on wheat seedlings, the “percent clothianidin uptake” value is “improvement was not significant”; the “Average of clothianidin detected” value amounted to 11.9 ± 3.4 ng; the “% Clothianidin uptake” value was 0.53 ± 0.15^ab %. In the data set on canola seedlings, the “Al Uptake (%)” value is recorded as 0.39% and the “Mean Al Uptake (ng/mg leaf)” value was 1.87 ng/mg leaf.
